Measured values published in patent US20150174221A1.

What was measured:
[1] = biological target: ADAMTS-4 (human) (UniProt O75173); assay: cell-based or functional assay
[2] = biological target: ADAMTS-5 (human) (UniProt Q9UNA0); assay: cell-based or functional assay
Chain of UniProt Q9UNA0 (Q9UNA0 262-622 limits assumed): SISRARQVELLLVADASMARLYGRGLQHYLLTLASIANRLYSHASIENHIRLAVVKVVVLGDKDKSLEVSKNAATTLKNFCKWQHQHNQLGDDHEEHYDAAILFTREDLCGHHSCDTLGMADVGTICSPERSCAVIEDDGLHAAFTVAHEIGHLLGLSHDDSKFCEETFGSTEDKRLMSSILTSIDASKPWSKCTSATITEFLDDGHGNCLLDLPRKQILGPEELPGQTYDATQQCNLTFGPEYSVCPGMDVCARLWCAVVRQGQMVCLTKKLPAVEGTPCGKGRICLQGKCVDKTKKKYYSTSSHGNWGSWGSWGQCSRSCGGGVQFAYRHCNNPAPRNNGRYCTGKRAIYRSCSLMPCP

Chain of UniProt O75173 (O75173 213-685 limits assumed): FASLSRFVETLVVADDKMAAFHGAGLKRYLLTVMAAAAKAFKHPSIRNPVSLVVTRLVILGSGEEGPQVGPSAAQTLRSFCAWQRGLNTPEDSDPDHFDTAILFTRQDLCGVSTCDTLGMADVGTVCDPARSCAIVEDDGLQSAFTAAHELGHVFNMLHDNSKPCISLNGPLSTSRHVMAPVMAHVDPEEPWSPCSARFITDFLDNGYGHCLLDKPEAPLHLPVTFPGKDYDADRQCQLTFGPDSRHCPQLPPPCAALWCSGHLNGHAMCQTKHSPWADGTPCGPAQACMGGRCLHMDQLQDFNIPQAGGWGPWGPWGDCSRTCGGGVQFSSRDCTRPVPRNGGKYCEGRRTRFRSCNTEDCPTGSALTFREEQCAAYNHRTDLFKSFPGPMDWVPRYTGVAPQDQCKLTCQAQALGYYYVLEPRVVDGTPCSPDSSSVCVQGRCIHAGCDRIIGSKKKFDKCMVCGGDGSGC

Work on “purified human A2M (alpha-2-macroglobulin) (from UniProt P01023 24-1474)” yielded an IC50 needed to inhibit cartilage catabolism by the protease [1] of 3 µg/mL, an IC50 for inhibiting cartilage catabolism of bovine cartilage explants by 500 ng/ml ADAMTS-5 [2] of 7 µg/mL and an IC50 needed to inhibit cartilage catabolism by the protease [2] of 7 µg/mL. The Maximum inhibition of ADAMTS-5-induced cartilage catabolism [2] was 90%.
